In the Human Domainome abundance scans (Beltran et al. 2025):
± gives the uncertainty stated by the source.

B1: Tumor protein p73, residues 487 to 549; numbered along this chain, O15350 (parent)
chain: YHADPSLVSFLTGLGCPNCIEYFTSQGLQSIYHLQNLTIEDLGALKIPEQYRMTIWRGLQDLK

Variants of: B1
Assay: abundance fitness (aPCA) (normalised: wild type 0, dead -1); higher = more abundant; growth selection in yeast, the domain comes from the species named
Conditions: Homo sapiens

Abundance fitness of substitutions, site by site:
G43: P -0.012 ± 0.085; L 0.033 ± 0.046; W -0.135 ± 0.056; C -0.049 ± 0.21; M 0.028 ± 0.066; H 0.16 ± 0.11; A -0.102 ± 0.053; E 0.07 ± 0.061; S -0.013 ± 0.05; D -0.085 ± 0.082; T 0.003 ± 0.052; R -0.016 ± 0.042; Q 0.061 ± 0.046; K 0.119 ± 0.047; V -0.018 ± 0.053; N -0.003 ± 0.1; Y -0.005 ± 0.069; I -0.135 ± 0.1
K46: T -0.102 ± 0.048; D -0.138 ± 0.076; C -0.08 ± 0.055; P 0.01 ± 0.059; R 0.041 ± 0.03; N 0.009 ± 0.057; F -0.142 ± 0.085; V -0.092 ± 0.034; I -0.345 ± 0.084; L -0.069 ± 0.032; W -0.249 ± 0.037; G 0.025 ± 0.027; Y -0.301 ± 0.1; S -0.043 ± 0.033; M -0.155 ± 0.057; E -0.127 ± 0.043
T38: N -0.11 ± 0.12; R -0.049 ± 0.028; E -0.107 ± 0.074; Y -0.409 ± 0.11; Q -0.018 ± 0.027; F -0.517 ± 0.13; S 0.018 ± 0.035; M -0.13 ± 0.049; D -0.215 ± 0.16; P -0.201 ± 0.054; W -0.415 ± 0.064; L -0.158 ± 0.037; K 0.103 ± 0.071; V -0.106 ± 0.033; H -0.064 ± 0.068; G -0.088 ± 0.036; A -0.014 ± 0.038; C -0.073 ± 0.073
Q35: E 0.005 ± 0.066; Y 0.031 ± 0.057; N 0.192 ± 0.071; F -0.142 ± 0.085; M -0.058 ± 0.051; C -0.07 ± 0.083; D 0.073 ± 0.08; H 0.026 ± 0.055; A -0.019 ± 0.042; P -0.184 ± 0.073; W -0.245 ± 0.041; V 0.055 ± 0.046; T -0.084 ± 0.042; K 0.078 ± 0.057; S 0.071 ± 0.043
D41: R -0.052 ± 0.036; N -0.042 ± 0.057; Y -0.45 ± 0.089; F -0.689 ± 0.16; T -0.159 ± 0.053; M -0.184 ± 0.075; H -0.198 ± 0.068; C -0.361 ± 0.07; I -0.9 ± 0.26; V -0.644 ± 0.056; G 0.006 ± 0.041; A -0.094 ± 0.038; E 0.119 ± 0.042; P -1.05 ± 0.15; Q 0.105 ± 0.057; S 0 ± 0.031; W -0.885 ± 0.11
Y32: W -0.001 ± 0.043; S 0.113 ± 0.032; T 0.014 ± 0.059; M -0.068 ± 0.064; F 0.069 ± 0.061; P -0.04 ± 0.07; G 0.104 ± 0.027; R 0.071 ± 0.03; D 0.03 ± 0.071; I 0.097 ± 0.089; C 0.112 ± 0.054; V 0.143 ± 0.039; L 0.105 ± 0.032; A 0.012 ± 0.053; E 0.095 ± 0.053; K 0.137 ± 0.1
E49: P 0.026 ± 0.066; V 0.009 ± 0.033; H -0.047 ± 0.051; I -0.254 ± 0.41; R 0.028 ± 0.039; A 0.007 ± 0.039; C -0.061 ± 0.052; G -0.123 ± 0.034; S -0.056 ± 0.037; F -0.355 ± 0.23; Q -0.045 ± 0.064; N 0.077 ± 0.12; D 0.105 ± 0.063; L -0.042 ± 0.036; K -0.014 ± 0.05; Y -0.181 ± 0.38; T -0.036 ± 0.041
L34: M 0.021 ± 0.051; N -0.536 ± 0.13; R -0.867 ± 0.077; S -0.319 ± 0.045; Y -0.285 ± 0.14; T 0.018 ± 0.045; Q -0.529 ± 0.073; D -0.835 ± 0.12; C -0.049 ± 0.068; V 0.038 ± 0.028; A 0.048 ± 0.039; E -0.638 ± 0.062; P -0.671 ± 0.12
H33: P -0.127 ± 0.037; N -0.027 ± 0.086; Q 0.069 ± 0.043; D -0.017 ± 0.1; R -0.055 ± 0.031; K 0.112 ± 0.041; T 0.01 ± 0.048; Y -0.112 ± 0.058; V -0.059 ± 0.034; G -0.038 ± 0.033; F -0.344 ± 0.099; W -0.566 ± 0.07; L -0.142 ± 0.037; M -0.088 ± 0.052; A -0.014 ± 0.035; I -0.216 ± 0.072; E 0.003 ± 0.041; C -0.051 ± 0.061
R52: W -0.082 ± 0.048; H 0.054 ± 0.061; F -0.53 ± 0.42; M -0.146 ± 0.063; S -0.066 ± 0.05; E -0.075 ± 0.051; T 0.009 ± 0.045; I 0.2 ± 0.073; G -0.114 ± 0.046; D -0.425 ± 0.47; Q -0.019 ± 0.046; P -0.755 ± 0.095; C -0.131 ± 0.11; L 0.004 ± 0.042
Y51: M -0.189 ± 0.048; R -0.137 ± 0.04; E -0.09 ± 0.049; A -0.005 ± 0.076; V -0.06 ± 0.062; D -0.072 ± 0.18; K 0.034 ± 0.1; C -0.083 ± 0.071; Q -0.124 ± 0.1; L -0.116 ± 0.058; N -0.139 ± 0.11; S -0.126 ± 0.055; H -0.086 ± 0.097; P -0.049 ± 0.094; F -0.032 ± 0.14
I47: D -0.477 ± 0.13; P -1.07 ± 0.17; L 0.021 ± 0.033; V 0.071 ± 0.026; C -0.171 ± 0.034; T -0.431 ± 0.061; A -0.768 ± 0.075; Q -0.985 ± 0.088; K -0.929 ± 0.17; E -1.06 ± 0.11; F -0.263 ± 0.068; N -0.413 ± 0.15; G -0.913 ± 0.053; W -0.925 ± 0.053; R -0.962 ± 0.063; S -0.95 ± 0.083; Y -0.824 ± 0.17
N36: E 0.087 ± 0.043; Q 0.022 ± 0.038; R 0.034 ± 0.031; W -0.078 ± 0.046; D 0.075 ± 0.039; T -0.026 ± 0.059; M -0.007 ± 0.054; A -0.04 ± 0.04; P -0.053 ± 0.078; L -0.061 ± 0.034; V -0.025 ± 0.035; C -0.567 ± 0.33; F -0.198 ± 0.072; Y -0.202 ± 0.091; S 0.046 ± 0.039; I -0.02 ± 0.073; G 0.013 ± 0.035
A44: T -0.046 ± 0.063; M 0.006 ± 0.05; D 0.174 ± 0.085; S 0.057 ± 0.042; Y -0.007 ± 0.067; P -0.041 ± 0.062; R 0.135 ± 0.028; K 0.057 ± 0.043; W -0.083 ± 0.038; L 0.06 ± 0.034; C 0.02 ± 0.058; H -0.021 ± 0.063; Q 0.036 ± 0.052; E 0.16 ± 0.055; F 0.011 ± 0.095; G 0.072 ± 0.031; N -0.061 ± 0.13; I -0.218 ± 0.2
Q50: A 0.08 ± 0.035; V 0.038 ± 0.035; P -0.132 ± 0.054; R 0.051 ± 0.034; H 0.039 ± 0.065; S 0.045 ± 0.034; G 0.111 ± 0.04; N 0.009 ± 0.07; D -0.106 ± 0.2; F -0.23 ± 0.087; E 0.047 ± 0.035; Y -0.297 ± 0.086; W -0.135 ± 0.03; I -0.192 ± 0.15; K 0.06 ± 0.052; C 0.096 ± 0.059; M 0.058 ± 0.052; T -0.034 ± 0.05; L -0.036 ± 0.037
I39: M -0.149 ± 0.27; W -0.231 ± 0.32
E40: G 0.053 ± 0.043; H -0.005 ± 0.11; C 0.033 ± 0.093; R -0.059 ± 0.035; A 0.007 ± 0.048; V -0.097 ± 0.049; Y -0.215 ± 0.13; D -0.06 ± 0.071; K -0.141 ± 0.069; M -0.127 ± 0.054; Q -0.124 ± 0.085; S -0.048 ± 0.053; P -0.152 ± 0.074; W -0.085 ± 0.044
L37: T -0.039 ± 0.065; I -0.058 ± 0.071; H -0.063 ± 0.12; Q -0.41 ± 0.13; S -0.142 ± 0.044; C -0.089 ± 0.082; W -0.159 ± 0.054; P -0.799 ± 0.12; F 0.02 ± 0.064; N -0.426 ± 0.21; K 0.001 ± 0.076; M 0.032 ± 0.05; R -0.191 ± 0.034; D -0.737 ± 0.16; Y 0.071 ± 0.11; G -0.536 ± 0.044; E -0.667 ± 0.074
L45: K -0.216 ± 0.076; Y 0.04 ± 0.1; H -0.45 ± 0.15; I 0.067 ± 0.076; M 0.023 ± 0.038; W -0.345 ± 0.047; A -0.18 ± 0.042; E -0.553 ± 0.07; R -0.241 ± 0.032; Q -0.518 ± 0.083; G -0.517 ± 0.046; D -0.609 ± 0.15; S -0.272 ± 0.04; N -0.224 ± 0.091; C -0.016 ± 0.041; T -0.076 ± 0.039
L42: Y -0.02 ± 0.098; H -0.577 ± 0.17; G -0.654 ± 0.05; P -0.696 ± 0.11; F 0.012 ± 0.07; S -0.785 ± 0.08; T -0.45 ± 0.062; I -0.215 ± 0.13; V -0.127 ± 0.028; C -0.494 ± 0.15; N -0.858 ± 0.13; M -0.078 ± 0.047; Q -0.512 ± 0.063; R -0.733 ± 0.051; W 0.072 ± 0.033; A -0.447 ± 0.048; K -0.515 ± 0.079; D -0.618 ± 0.33
P48: N -0.261 ± 0.1; W -1.07 ± 0.13; G -0.173 ± 0.036; A -0.091 ± 0.043; F -1.3 ± 0.37; R -0.42 ± 0.038; Q -0.208 ± 0.044; C -0.51 ± 0.071; D -0.054 ± 0.051; M -0.965 ± 0.091; L -1.1 ± 0.12; K -0.212 ± 0.043; T -0.247 ± 0.05; E -0.067 ± 0.042; I -0.144 ± 0.18; H -0.389 ± 0.083; Y -1.13 ± 0.21; V -0.924 ± 0.089; S -0.149 ± 0.037
